The record followed here is PMC5495134.

Assay [1] deals with Mth1491 homotrimer with a cysteine introduced at position 92, modified with azo maleimide 3 (Methanobacterium thermoautotrophicum). In words: affinity chromatography on beta-cyclodextrin resin with LC-MS of fractions; Mth1491 modified to about 50% with azo maleimide 3, eluted from a column packed with resin 4 (beta-cyclodextrin on sepharose CL-4B); four peaks for the modification states of the trimer; isolated singly and doubly modified species repurified; trimer disassembles upon LC-MS.

Assay [2] has as its target Mth1491 homotrimer with a cysteine introduced at position 92, tagged, azo-cleaved, AF-labelled and protected with Ellman's reagent (Methanobacterium thermoautotrophicum). In words: dynamic light scattering; average particle size before and after protection with Ellman's reagent (5.5 ± 0.3 nm to 7.4 ± 0.9 nm). (Ellman's reagent forms a yellow product with free thiols.)

On to “Mth1491 homotrimer with a cysteine introduced at position 92, modified with azo maleimide 3 (natural protein)”, for which the stoichiometry N in assay [1] turned out to be 3. In turn, “Mth1491 homotrimer with a cysteine introduced at position 92, tagged, azo-cleaved, AF-labelled and protected with Ellman's reagent (natural protein)” had a stoichiometry N in assay [2] of 3.

The stoichiometry N is the number of molecules, sites or subunits per partner or assembly.
